In patent publication US20260209386A1 (MYTHIC THERAPEUTICS, published 2026):

Experiments:
[1] = target: T1, Human PTK7 Protein, His Tag, Acro Biosystems (human, UniProt Q13308 31-704); assay: BLI, anti-human Fc capture, 50 nM PTK7; 1 = pH dependent binding relative to parent
T1 construct: Bought recombinant protein; also called CCK4; not shown: His tag
T1 sequence: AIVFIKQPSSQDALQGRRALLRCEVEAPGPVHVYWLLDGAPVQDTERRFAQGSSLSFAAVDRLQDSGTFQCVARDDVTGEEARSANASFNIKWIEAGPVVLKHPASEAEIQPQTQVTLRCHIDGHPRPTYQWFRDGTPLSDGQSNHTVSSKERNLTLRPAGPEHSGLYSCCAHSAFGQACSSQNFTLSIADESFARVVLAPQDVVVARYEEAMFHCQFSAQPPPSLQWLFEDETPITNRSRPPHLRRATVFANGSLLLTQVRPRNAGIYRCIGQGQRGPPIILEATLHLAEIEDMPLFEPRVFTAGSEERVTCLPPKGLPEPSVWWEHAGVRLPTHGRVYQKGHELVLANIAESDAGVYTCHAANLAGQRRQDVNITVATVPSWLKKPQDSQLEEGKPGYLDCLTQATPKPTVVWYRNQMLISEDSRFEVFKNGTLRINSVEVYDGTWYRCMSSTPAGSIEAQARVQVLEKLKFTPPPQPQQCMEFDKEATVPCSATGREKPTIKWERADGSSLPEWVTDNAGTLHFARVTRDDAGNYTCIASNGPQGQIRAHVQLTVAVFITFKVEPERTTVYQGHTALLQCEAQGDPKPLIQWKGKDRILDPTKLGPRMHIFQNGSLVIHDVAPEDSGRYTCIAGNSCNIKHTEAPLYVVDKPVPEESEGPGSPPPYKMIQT

[2] = target: T2, Human PTK7 Protein, His Tag (Acro Biosystems) (human, UniProt Q13308 31-704); assay: BLI (Octet), antibody on anti-human Fc sensor, 50 nM PTK7; grade 1 = pH dependent binding relative to parent
T2 construct: Bought His-tagged protein; also called CCK4; not shown: His tag
T2 sequence: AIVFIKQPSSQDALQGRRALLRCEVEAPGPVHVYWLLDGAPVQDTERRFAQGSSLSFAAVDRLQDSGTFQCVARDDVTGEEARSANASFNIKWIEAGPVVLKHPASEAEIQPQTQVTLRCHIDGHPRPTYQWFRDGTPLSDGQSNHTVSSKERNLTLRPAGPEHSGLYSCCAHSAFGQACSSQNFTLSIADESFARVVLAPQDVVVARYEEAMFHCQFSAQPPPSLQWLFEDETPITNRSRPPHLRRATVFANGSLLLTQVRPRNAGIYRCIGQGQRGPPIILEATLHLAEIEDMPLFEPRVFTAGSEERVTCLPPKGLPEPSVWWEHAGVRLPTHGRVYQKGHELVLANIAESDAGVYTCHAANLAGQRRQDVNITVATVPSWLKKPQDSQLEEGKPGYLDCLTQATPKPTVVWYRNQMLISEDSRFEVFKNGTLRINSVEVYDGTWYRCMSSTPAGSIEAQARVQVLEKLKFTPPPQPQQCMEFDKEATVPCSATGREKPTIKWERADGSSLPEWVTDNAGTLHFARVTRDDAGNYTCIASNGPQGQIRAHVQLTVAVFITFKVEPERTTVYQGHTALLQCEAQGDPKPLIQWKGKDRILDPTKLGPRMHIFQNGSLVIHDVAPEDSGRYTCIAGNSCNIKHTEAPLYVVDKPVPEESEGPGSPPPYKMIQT

B1: MYT11285 (antibody, V domains shown)
VH: EVQLVESGGGLVQPGGSLRLSCTASGIDLSRYSMGWVRQAPGKGLEWVGIISYGGSTYYASWAKGRFTISRDTSKNTVYLQMNSLRAEDTAVYFCARVGYHGYSGYGYAFDAFDPWGQGTLVTVSS
VL: EIVMTQSPSTLSASVGDRVIITCQSSKSVYNDNWLSWYQQKPGKAPKLLIYGASTLASGVPSRFSGSGSGAEFTLTISSLQPDDFATYYCAGGYSSSSDNGFGQGTKLTVL
notes: MYT9792 variant, His at VH 101 (H3 06)
[1]
  binding result: binds

B2: MYT11309 (antibody, V domains shown)
VH: EVQLVESGGGLVQPGGSLRLSCTASGIDLSRYSMGWVRQAPGKGLEWVGIISYGGSTYYASWAKGRFTISRDTSKNTVYLQMNSLRAEDTAVYFCARVGYPGYSGYGYAFDAFDPWGQGTLVTVSS
VL: EIVMTQSPSTLSASVGDRVIITCQSSKSHYNDNWLSWYQQKPGKAPKLLIYGASTLASGVPSRFSGSGSGAEFTLTISSLQPDDFATYYCAGGYSSSSDNGFGQGTKLTVL
notes: MYT9792 variant, His at VL 29 (L1 06)
[1]
  binding result: binds

B3: MYT11322 (antibody, V domains shown)
VH: EVQLVESGGGLVQPGGSLRLSCTASGIDLSRYSMGWVRQAPGKGLEWVGIISYGGSTYYASWAKGRFTISRDTSKNTVYLQMNSLRAEDTAVYFCARVGYPGYSGYGYAFDAFDPWGQGTLVTVSS
VL: EIVMTQSPSTLSASVGDRVIITCQSSKSVYNDNWLSWYQQKPGKAPKLLIYGASTLHSGVPSRFSGSGSGAEFTLTISSLQPDDFATYYCAGGYSSSSDNGFGQGTKLTVL
notes: MYT9792 variant, His at VL 57 (L2 06)
[1]
  binding result: binds

B4: MYT11289 (antibody, V domains shown)
VH: EVQLVESGGGLVQPGGSLRLSCTASGIDLSRYSMGWVRQAPGKGLEWVGIISYGGSTYYASWAKGRFTISRDTSKNTVYLQMNSLRAEDTAVYFCARVGYPGYSHYGYAFDAFDPWGQGTLVTVSS
VL: EIVMTQSPSTLSASVGDRVIITCQSSKSVYNDNWLSWYQQKPGKAPKLLIYGASTLASGVPSRFSGSGSGAEFTLTISSLQPDDFATYYCAGGYSSSSDNGFGQGTKLTVL
[1]
  binding result: binds

B5: MYT11093 (antibody, V domains shown)
VH: EVQLVESGGGLVQPGGSLRLSCTASGLSLSSYWMSWVRQAPGKGLEWVGVISAGGNTYYANWAKGRFTISRDTSKNTVYLQMNSLRAEDTAVYFCARGDDGYTNAAYVSNLWGQGTLVTVSS
VL: EIVMTQSPSTLSASVGDRVIITCQASQSISSWLSWYQQKPGKAPKLLIYKASTLASGVPSRFSGSGSGAEFTLTISSLQPDDFATYYCQSYHDSTTIAFGQGTKLTVL
notes: MYT9361 LC variant
[2]
  binding result: binds
